Reference: patent publication US20250027068
Residue numbers refer to the chain shown, from its start.

B1: PRT-672 (protein)
chain: MQITSVWTKGVTPPTPEQFTYQNEDVFHAPYIANQGWYDITKTFNGKDNLLCGAATAGNMLHWWFDQNKTEIENYLKKHPEKQKIIFNNQEMFDLRKAINTKDSQTNSALFEYFRDKAFPNLSARQLGVMPDHVLDMFINGYYLNVTKTQSTDVNRPYQTKDKRGGIFDHVFTRGDQSKLLTARHDLKNKTLNEISDLIKQELTEGKALALSHTYANVRINHVINLWGADFDAEGNLEAIYVTDSDSNASIGMKKYFVGVNSSGKVAISAKKIEDDNIGAQVLGLFTLSSGQDIWEQLSLEHHHHHH
B2: PRT-616 (protein)
chain: MQITTVWTKGVTPLTPEQFRYNNEDVIHAPYLPHQGWYDITKAFDGKDNLLCGAATAGNMLHWWFDQNKTEIEAYLSKYPEKQKIIFNNQELFDLRAAINTKDSQTNSQLFNYFRDKAFPNLSARQLGVMPDLVLDMFINGYYLNVFKTQSTDVNRPYQDRDKRGGIFDAVFNRGDQTTLLTARHDLKNKGLNDISTIIKQELSSGRALALSHTYANVSISHVINLWGADFNAEGNLEAIYVTDSDANASIGMKKYYVGINAHGHVAISAKKIEGENIGAQVLGLFTLSSGKDIWQKLSLEHHHHHH
B3: PRT-664 (protein)
chain: MQITSVWTKGVTPLTPEQFRYNNEDVIHAPYLPHQGWYDITKAFDGKDNLLCGAATAGNMLHWWFDQNKTEIEAYLSKHPEKQKIIFNNQELFDLRAAINTKDSQTNSALFNYFRDKAFPNLSARQLGVMPDLVLDMFINGYYLNVFKTQSTDVNRPYQDKDKRGGIFDAVFTRGDQTTLLTARHDLKNKGLNDISTLIKQELTEGKALALSHTYANVSISHVINLWGADFNAEGNLEAIYVTDSDSDASIGMKKYYVGINASGHVAISAKKIEGENIGAQVLGLFTLSSGKDIWQKLSLEHHHHHH
B4: PRT-85 (protein)
chain: MANQEIRYSEVTPKTITSVWTKGVTPPADFTQGEDVFHAPYKPNQGWYDINKTFNGKDNLLCGAATAGNMLHWWFDQNKEQIEAYLKKHPEKQKIMFGDQELLDVRKAINTKDDQTDSKLFNYFKDKAFPNLSARRLGVMPDHVLDMFINGYRLNVTKTQTTDVNRTYQTKDKRGGFFDAVFTRGDQSKLLTNRHDFKEKNLKEISDLIKKELTEGKALGLSHTYANVRINHVINLWGADFDSEGNLKAIYVTDSDSNASIGMKKYYVGVNSAGKVAISAKEIKGENIGAQVLGLYTLSTGQDIWNQTN
B5: PRT-86 (protein)
chain: MANQEIRYSEEDPKHVTSVWTKGVTPPTDFTQGEDVLHAPYIANQGWYDITKTFNGKDDLLCGAATAGNMLHWWFDQNKEEIENYLKKHPEKQKIMFGDQELLDVRKVINTKDSQTNSKLFNYFREKAFPNLSARRLGVMPDLVLDMFINGYYLNVTKTQTTDVNRTYQTKDKRGGIFDAVFTRGDQTKLLTNRHDFKEKTLNEISDLIKQELQEGKALGLSHTYANVRINHVINLWGADFDSNGNLEAIYVTDSDANASIGMKKYFVGKNSAGKVAISAKEIKDDNIGAQVLGLFTLSTGQDIWNQTN
B6: PRT-674 (protein)
chain: MQITSVWTKGVTPPTMEQFRYNNYDVFHAPYLPGQGWYDITKAFDGGDNLLCGAATAGNMLHWWFDQNKEEIEAYLSKYPEKQKIIFNNQELFDLRKAINSKDSQTNSELFNYFRDKAFGNLSARQKGVMPDLVLDMFINGYYLNLNKTQSTDVNRPYQDPDKRGGIFDDVFKEGDQTKLLTARHDLSNGGLDDISTIIKQELQSGRALALSHTYANVSYSHVINLWGADFDAEGNLEAIYVTDSDDDQSIGMKKYKVGKNASGHVRISAKKIEDENIGAQVLGLFTLSLGKEIWQKLSLEHHHHHH
B7: PRT-87 (protein)
chain: MANQEIRYSEVTPYHITSVWTKGVTPPEQFTQGEDVFHAPYIANQGWYDITKTFNGKDNLLCGAATAGNMLHWWFDQNKEEIERYLKKYPEKQKIMFGDQELLDVRKVINTKDSQTNSKLFEYFRDKAFPNLSARRLGVMPDLVLDMFINGYYLSVTKTQTTDVNRTYGNKDNRGGIFDAVFTRGDQSKLLTNRHDFKEKNLKEISQLIKQELQEGKALALSHTYANVRINHVINLWGADFDSEGNLKAIYVTDSDSNASIGMKKYFVGVNSSGKVAISAKEIEEDNIGAQVLGLFTLSTGQDIWEQTN
B8: PRT-84 (protein)
chain: MANQEIRYSEETPYTVTSVWTKGVTPPTQFIQGEDVFHAPYKANQGWYDITKTFNGKDNLLCGAATAGNMLHWWFDQNKEYIEAYLKKHPEKQKIMFGDQELLDVRKVINTKDSQTDSKLFNYFKDKAFPNLSARRLGVMPDLVLDMFINGYYLNVGKTQTTDVNRTYQEKDKRGGIFDAVFTRGDQSKLLTSRHDFKEKSLKEISDLIKKELTEGKALGLSHTYANVRINHVINLWGADFDSEGNLKAIYVTDSDSDASIGMKKYFVGVNSSGKVAISAKEIEEDNIGAQVLGLFTLSSGQDIWNQTN
B9: PRT-570 (protein)
chain: MANQEIRYSEATPSHITSVWTKGVTPPEQFIQNEDVLHAPYIANQGWYDITKTFNGKDDLLCGAATAGNMLHWWFDQNKEQIEAYLKKHPEKQKINFNGEQMFDVKEAIDTKDSQTDSALFNYFKDKAFPYLSTKHLGVFPDHVIDMFINGYRLSLTNHGPTPVKEQTKDPRGGIFDAVFTRGDQSKLLTSRHDFKEKTLKEISQLIKQELTEGKALGLSHTYANVRINHVINLWGADFNAEGNLEAIYVTDSDSNASIGMKKYYVGVNSAGKVAISAKEIEGDNIGAQVLGLFTLSTGQDIWQQTNLEHHHHHH
B10: PRT-88 (protein)
chain: MANQEIRYSEVTPYHVTSVWTKGVTPPAKFTQGEDVFHAPYVANQGWYDITKTFNGKDDLLCGAATAGNMLHWWFDQNKEKIEAYLKKHPEKQKIMFGDQELLDVRKVINTKGDQTNSELFNYFRDKAFPGLSARRLGVMPDLVLDMFINGYYLNVYKTQTTDVNRTYQEKDRRGGIFDAVFTRGDQSKLLTSRHDFKEKNLKEISDLIKKELTEGKALGLSHTYANVRINHVINLWGADFDSNGNLKAIYVTDSDSNASIGMKKYFVGVNSAGKVAISAKEIKEDNIGAQVLGLFTLSTGQDIWNQTN
B11: PRT-89 (protein)
chain: B10 chain with G113D
B12: PRT-557 (protein)
chain: MANQEIRYSEEDGKTITSVWTKGVTPPTDFQKNEDVYHAPYVANQGWYDITKTFNGKDDLLCGAATAGNMLHWWFDQNKEEIERYLKKHPEKQKINFNGEQMFDVKEAIDTKDSQTDSALFEYFKDKAFPYLSTKHLGVFPDHVIDMFINGYRLSLTNHGPTPVKDGTKDPRGGIFDAVFTRGDQTKLLTERHDFKEKTLNEISDLIKQELQEGKALGLSHTYANVRINHVINLWGADFDSEGNLEAIYVTDSDSNASIGMKKYYVGVNSAGKVAISAKEIEDDNIGAQVLGLFTLSTGKDIWEQTNLEHHHHHH
B13: PRT-628 (protein)
chain: MQITSVWTKGVTPLTPEQFRYNNEDVIHAPYLAHQGWYDITKAFDGKDNLLCGAATAGNMLHWWFDQNKEEIEAYLKKHPEKQKIIFNNQELFDLKAAIDTKDSQTNSQLFNYFRDKAFPNLSARQLGVMPDLVLDMFINGYYLNVFKTQSTDVNRPYQDKDKRGGIFDAVFTRGDQTTLLTARHDLKNKGLNDISTIIKQELTEGRALALSHTYANVSISHVINLWGADFNAEGNLEAIYVTDSDANASIGMKKYFVGINAHGHVAISAKKIEGENIGAQVLGLFTLSSGQDIWQQLSLEHHHHHH
B14: PRT-679 (protein)
chain: B13 chain with A43T, E70T, K77S, A97E, D100N, D194E, R207K, Q292K, Q297K
B15: PRT-648 (protein)
chain: B13 chain with E70T, K77S, E91Y, P120G, F147N, D160K, K161P, Q292K, Q297K
B16: PRT-652 (protein)
chain: B13 chain with E70T, K77S, T214G, Y215T, V218G, S219G, I220Y, I278K, Q292K, Q297K
B17: PRT-656 (protein)
chain: B13 chain with E70T, K77S, A97R, D100N, T101D, T106Q, Q109E, Q292K, Q297K
B18: PRT-653 (protein)
chain: B13 chain with E70T, K77S, A216G, S219R, I220S, I278V, Q292K, Q297K

Each protein was assayed against pooled human IgG (human IgG1,2,3 and 4).

In order of rising Enzyme activity endpoint: Fab′2:
1. B15  182 ng/µL
2. B16  410 ng/µL
3. B6  462 ng/µL
4. B12  512 ng/µL
5. B9  551 ng/µL
6. B14  693 ng/µL
7. B3  703 ng/µL
8. B1  775 ng/µL
9. B17  841 ng/µL
10. B13  852 ng/µL
11. B2  943 ng/µL
12. B18  1350 ng/µL

In order of falling Enzyme activity endpoint: Fc:
1. B17  540 ng/µL
2. B2  495 ng/µL
3. B13  465 ng/µL
4. B1  443 ng/µL
5. B3  419 ng/µL
6. B12  410 ng/µL
7. B14  327 ng/µL
8. B15  206 ng/µL
9. B9  126 ng/µL
10. B6  0 ng/µL
11. B16  0 ng/µL
12. B18  0 ng/µL

In order of rising Enzyme activity endpoint: IgG:
1. B2  0 ng/µL
2. B3  0 ng/µL
3. B9  0 ng/µL
4. B12  0 ng/µL
5. B13  0 ng/µL
6. B17  0 ng/µL
7. B14  34 ng/µL
8. B1  73 ng/µL
9. B15  417 ng/µL
10. B16  789 ng/µL
11. B6  891 ng/µL
12. B18  2350 ng/µL

In order of falling Enzyme activity endpoint: scIgG:
1. B15  619 ng/µL
2. B17  319 ng/µL
3. B12  194 ng/µL
4. B14  54 ng/µL
5. B6  12 ng/µL
6. B16  12 ng/µL
7. B1  0 ng/µL
8. B2  0 ng/µL
9. B3  0 ng/µL
10. B9  0 ng/µL
11. B13  0 ng/µL
12. B18  0 ng/µL

In order of rising Enzyme Activity Endpoint Assay: Fab′2:
1. B4  0 ng/µL
2. B7  0 ng/µL
3. B5  4 ng/µL
4. B8  8 ng/µL
5. B11  45 ng/µL
6. B10  48 ng/µL

In order of rising Enzyme Activity Endpoint Assay: Fc:
1. B4  0 ng/µL
2. B7  52 ng/µL
3. B5  61 ng/µL
4. B8  67 ng/µL
5. B11  89 ng/µL
6. B10  110 ng/µL

In order of rising Enzyme Activity Endpoint Assay: IgG:
1. B10  25 ng/µL
2. B8  27 ng/µL
3. B11  34 ng/µL
4. B5  45 ng/µL
5. B7  60 ng/µL
6. B4  109 ng/µL

In order of falling Enzyme Activity Endpoint Assay: scIgG:
1. B5  53 ng/µL
2. B8  51 ng/µL
3. B7  50 ng/µL
4. B4  0 ng/µL
5. B10  0 ng/µL
6. B11  0 ng/µL
